Test results taken from paper PMC12063518, “IAT4, a New Indolamine N‐Acetyltransferase in Saccharomyces cerevisiae Involved in Melatonin Biosynthesis” (Journal of Pineal Research, 2025).

What was measured:
Test in all cases: purified protein
[1] = substrate: NCCc1c[nH]c2ccc(O)cc12; conditions: 0.2 mM acetyl-CoA, pH 8.8, 37 °C, 15 min enzymatic assay as Iat4, fit R2 = 0.825
[2] = substrate: NCCc1c[nH]c2ccc(O)cc12; assay type: biochemical, Saccharomyces cerevisiae; conditions: 0.2 mM acetyl-CoA, pH 8.8, 37 °C
[3] = substrate: COc1ccc2[nH]cc(CCN)c2c1; assay type: biochemical, Saccharomyces cerevisiae; conditions: 0.2 mM acetyl-CoA, pH 8.8, 37 °C, 15 min
[4] = substrate: NCCc1c[nH]c2ccccc12; assay type: biochemical, Saccharomyces cerevisiae; conditions: 0.2 mM acetyl-CoA, pH 8.8, 37 °C, 15 min

B1: Paa1 (Saccharomyces cerevisiae S288C) (protein)
chain: MASSSSTLPLHMYIRPLIIEDLKQILNLESQGFPPNERASEEIISFRLINCPELCSGLFIREIEGKEVKKETLIGHIMGTKIPHEYITIESMGKLQVESSNHIGIHSVVIKPEYQKKNLATLLLTDYIQKLSNQEIGNKIVLIAHEPLIPFYERVGFKIIAENTNVAKDKNFAEQKWIDMERELIKEEYDN
Km [1]: 4250 ± 1460 µM

B2: Hpa2 (Saccharomyces cerevisiae S288C) (protein)
chain: MSNTSEDNITVRFVTENDKEGWQRLWKSYQDFYEVSFPDDLDDFNFGRFLDPNIKMWAAVAVESSSEKIIGMINFFNHMTTWDFKDKIYINDLYVDENSRVKGAGGKLIQFVYDEADKLGTPSVYWCTDESNHRAQLLYVKVGYKAPKILYKRKGY
notes: same enzymatic assay as Iat4
Km ([2]; 15 min enzymatic assay as Iat4, unit not given, mM from the preceding sentence): 6.82 ± 1.62 mM

B3: Iat4 (Saccharomyces cerevisiae S288C) (protein)
chain: MSFENKLPTPLENNDAKGHMVCTLNKTTDARRAAETLSIAFSNSPAFHFICKKILNIPLAEKVPTRTITTDIISPFLDSPYGEISEVNTFDAVAVWSLPPHVPKARSNDAKFNKDFIDDLNARVKQVIPNGINYYYLFCIGKNLNEKGIRGSVRTIFEEYKRRADEENCAIVLEAIAEHAKSVYEYFGFRNYMTFKYGECEVDSNGNCDPNGEGFTAYLMIYHKDGNKVLKE
notes: GST fusion from pGEX-5X-1, E. coli Rosetta (DE3), glutathione Sepharose; native protein 232 aa
Km [3]: 353 µM | Km ([2]; 15 min): 0.93 mM | Km [4]: 356 µM
